Data taken from a protein production outcome set (Wang et al. 2014).

Test: label from the status in PepcDB records
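Note: failed if final PepcDB status was selected cloned or expressed and not failed if soluble or beyond.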

Sequence | protein production
MSEENRAVVSRMTEEDVRQLIKRKDDIEEQIKAYYDMLESQAGVGMDGPLVDVEGFPRADVDLYKVRTARHSISCLQNDHKAIMVEIEEALHKLHATARVTHEQDDTQMESSGQTVETPPPFALVDAVTHGSPAAQAGLHVGDQIMEFGSVNTQNFRNLRDIASVVQHSEGKSLRVGVFRNGQEVHLNLTPQQWSGRGLLGCNIVPLHR | failed
MTIAFLVLVVALASGFAFLNGFRDVSNAVALSTRTRALTPSIAVLLAAIFNFVGAMLSGTFILAFTQSWITLPEGTSGLTMLASALTAAILWGVYAWWRGIPLSSTNSLIGGLIGAGAASVLVGGNAVGGMDNVLLTQVALPLVLSPVIAFVAAYLLVWPVTWAARYTQPNVVNRRFRRAQAISTAAVAFGHGLQDGQRTAAVMVLAMVAAGLSSGSDVPLWILLVTAIMLTAGTMFGGWRISHTLGHKLIRVDPLRGFVAQTLTSVMLFIGAIGFHLPLSTTHTLTAAVLGSGVNQRFHTVNRRLVRRVLLFWVATPLITAAAAFILELAFSPLADL | failed
MDLFNLLDGITFWHWLAFGFVLLAVELLGTAGYFLWLGLSALLVGALLAVLPFGWQLQWLSFATFSLLTTWLWWRRQWSRDKQDDQTRDLNQKYKQLIGRSVILEEDFSIGLNRIRIADTTWSAQCEQNIRAGTRVKIVAIDGIILIVEPISE | failed
MLSRLFLLFALVPFLELYLLVQVGTVIGAAPTILLVILTAVVGAWLARTQGLGVMARVQNDLARGIMPGQALIDGFCILLAGLLLLTPGFLTDVVGLLLLLPPFRALLASRLQRHFAVRYASSGTTAEGGHFIVYGSSGPAAHEEPRHAVVIDTQPIDSSSAATGLADDTKPLGDAQPSGDGRPRS | failed
MSSSDIFIGETIGTAVLILLGGGVCAAVTLKASKARNAGWLAITFGWGFAVLTAVYISAPLSGAHLNPAVTLALAIKDNDWSNVPTYWAGQLLGAMIGAALVWVAYYGQFHAHLTDHEIVGGPGAQATKTKAVEAQETGAGPVLGVFSTGPEVRNVVQNLATEIIGTVVLVLAILTQGLNDNGNGLGTIGALITSLVVVSIGLSLGGPTGYAINPARDLGPRIVHALLPLPNKGGSDWSYAWIPVVGPLIGAAIAAGIYNVAFA | failed
AIAQGENVDHAQPISTWSAEQELHLVVFTKPPIAGLTKQRLSREIGSTLATRISAALVENTLATAYDWLQGLDLQAGGTGAVHLYYTPVESEQAKAECVERWLDDSVRHRYPAFRIAPQKASKVQSTGDQKQDPLGSRLIQAFTEVTSLVDESRDAHVVVIGSDCPALDTAVLQQAFAALHAGHGAVIGPAQDGGYYLLGLAFAAAERTRWARVIYAAFGPHLVFSQNDVCARTVEALRNDGVRTICLPVTLNDVDTAQDLVHLPASMRPREWFSSANARLHKTSDLVETAPAPGSTTCDEEVDADKLDPSVQNVCSRQV | not failed
RGIAVYVEHHNGNIHPVTYELIGKAREMASKIKQPVYCVFVGKDIKDKCSNLISYGVDEVFVYDEDEFKDFRIEPYSKAIENFIDKIKPTIVLVGGTTLGRSLAPRLAARFRTGLTADCTILDIQSNTDLDQIRPAFGGNIMAHINTPNNRPQFATVRYKIFSAPEKIENTTGKITLCKVEKKELKSKIKVLSVKEKNKEVG | failed
MTDNLINNGTKTTPEAEILTAASNSRSSDAQHDDTAPAGEVLLDIDPDELLSDPAEKEETSAQDIALPDHVAGSGSLDRLIDQARDYAEAATAENTNKAYKADWKHFTGWCRRKGVDALVPSPAVIGLYISDCAKPQDGSPALSVSTIERRLSGLAANYRQRGLALDMKDRHIASVWAGIKRHHAKPPTQKEAVLIEDVLAMVGALSYSLRDLRDRAILLIGYAGGLRRTEIVGLDVGKDESDDGRGWVEILEGGAVLHIKGKTGWREVEIGRGSADQTCPVYALEQWLHYAKIDVGSVFRQVFRDNSRIGPERLSDKHVVRLIKRLVLETGVGLDRPALSKLSDEERAKFFAGHSLRAGLASGAEVDERYVQKQLGHASAEMTRRYQRRRDRFRVNLTKAVGL | failed
MSANVQEAANAAIEPASFVKVPMPEPPSSLQQLINDWQLIKHREGGYFKETDRSPYTMEVEKPVNGGSGNTEMVTRNQSTLIYYLLTPDSPIGKFHKNINRIIHILQRGKGQYVLVYPDGQVKSFKVGFDYKNGEVSQWVVPGGVFKASFLLPNEEFDNGFLISEVVVPGFDFEDHTFLKGEDELKHLVGPEKAAELAFLA | not failed
MTKYQETAKAILAAVGGEKNIQHVTHCVTRLRLVLDNDEIVNDQVIKTIPNVIGVMRKNDQYQIILGNDVNNYYNAFLALGHFENTTREFSSQKKSSILEKLIETIAGVITPLIPALLGGGMLKVIGILLPMLGIASSSSQTVAFINFFGDAAYYFMPIMIAYSAASRFKVTPVLAATVGGILLHPAFVTMVAEGKPLSLFGAPVTLASYGSSVIPILIMVFLMQYIERWINKIVPSVMKSFLQPTLIILISGFLALVVVGPLGVIIGKGLSSAMLSIYHVAPWLALSILGAIMPLVVMTGMHWAFAPIFLAASVATPDVLILPAMLASNLAQGAASLAVAVKAKQKQTRQVAFAAGLSALLAGITEPALYGVTLKFKKPLYAAMISGGLVGAYIGLVNIASYTFVVPSIIGLPQYINPQGGNNFSNAVIAAIATIILTFIITWFLGIDEGENEKSSINAQEHTHIRSGLSKKETLYSPMVGNVLPLSKVPDETFSSKLLGEGLAITPSVGEVYAPFDGEIISLFPTKHAIALKDDKGVEVLIHIGIDTVELNGEGFEQLVKVGDFVKRGQLLLRMDIDFISSKGYSLISPVVVTNSIDQLEIIVKDAETMVTNEDDLLVIL | failed
MAKNYYDITLALAGICQSARLVQQLAHQGHCDADALHVSLNSIIDMNPSSTLAVFGGSEANLRVGLETLLGVLNASSRQGLNAELTRYTLSLMVLERKLSSAKGALDTLGNRINGLQRQLEHFDLQSETLMSAMAAIYVDVISPLGPRIQVTGSPAVLQSPQVQAKVRATLLAGIRAAVLWHQVGGGRLQLMFSRNRLTTQAKQILAHLTPEL | not failed
MHPASFDDHIFRLLIEAVDDYAIYIIDAQGHILTWNNGAERNTGYNADEIIGQSFELFYTPEDLATQLPAKGLLHANQLGHYENQGWRVRKNGKRFWGHITLSALHDSEHNLQGFVQVTRDLTD | failed
MFEASTFLLFMGSAIMLIIIPGPDLVFTITQGMTNGRKAGVITAMGLSLGNIVHTLAAVLGLSLIIQTSVVVFTIFKLAGAMYLFYLAYKALKHRKEEIRVNSEKTNDLKGLFLRGLIMNVLNPKVAIFYLTFLPQFVNYQSANISLQLCILGLIFIIMTAIIFSIFGYFSGTFRDRLLKNSRFNEYMNIAATIIFIGLGLKLMTTQL | failed
MSLSKVFTIGEILVEIMASKIGQPFDQPGIWNGPYPSGAPAIFIDQVTRLGVPCGIISCVGNDGFGDINIHRLAADGVDIRGISVLPLEATGSAFVTYHNSGDRDFIFNIKNAACGKLSAQHVDENILKDCTHFHIMGSSLFSFHMVDAVKKAVTIVKANGGVISFDPNIRKEMLDIPEMRDALHFVLELTDIYMPSEGEVLLLSPHSTPERAIAGFLEEGVKEVIVKRGNQGASYYSANEQFHVESYPVEEVDPTGAGDCFGGAWIACRQLGFDAHRALQYANACGALAVTRRGPMEGTSRLMEIETFIQRHDMSIREAAQEGHHHHHH | not failed
MFPLTEENKHVAQLLLNTGTCPRCIFRFCGVDFHAPYKLPYKELLNELQKFLETEKDELILEVMNPPPKKIRLQELEDSIDNLSQNGEGRISVSHVGSTASKNSNLNVCNVCLGILQEFCEKDFIKKVCQKVEASGFEFTSLVFSVSFPPQLSVREHAAWLLVKQEMGKQSLSLGRDDIVQLKEAYKWITHPLFSEELGVPIDGKSLFEVSVVFAHPETVEDCHFLAAICPDCFKPAKNKQSVFTRMAVMKALNKIKEEDFLKQFPCPPNSPKAVCAVLEIECAHGAVFVAGRYNKYSRNLPQTPWIIDGERKLESSVEELISDHLLAVFKAESFNFSSSGREDVDVRTLGNGRPFAIELVNPHRVHFTSQEIKELQQKINNSSNKIQVRDLQLVTREAIGHMKEGEEEKTKTYSALIWTNKAIQKKDIEFLNDIKDLKIDQKTPLRVLHRRPLAVRARVIHFMETQYVDEHHFRLHLKTQAGTYIKEFVHGDFGRTKPNIGSLMNVTADILELDVESVDVDWPPALDD | failed
MEYEHITHSFEPVYDENSRILILGTLPSVASRENNFYYGHKQNRFWKLLAYLLDEPVPETIDEKKYMLFKNHIAIWDVIQSCDIKGSSDSSIKNVEPTDIRKILETADIKQVYANGNKAGALYKKYQLPLTGMEAVTLPSTSPANAAWSFERLCEAWTRILANL | failed
MSNVLTEIDSQYPYMTKNEKKIAKFILNSPQKVIKMRSQDLASLLDISTSSVIRFSKKITDGGFHDLKINISKYVPKASSIYNVELMNNESTESLRTKLHTRTTRALNHANNELN | not failed
MNEELKKSIAASIENTRFDILQMIELGRELIDYPDEIHHGPVVSMGVPKDTLPKWDDIQILTAQLHKKPLIDDAPVDTQLVIGPRAQKPLVLDIPLLVGDMSYGALSKRAKQALSKGADLAGTAICSGEGGILGDELELNQSYMFELGSARNGLKKNSDLSQFSKDFKGKVKAFHFKGGQAAKTGTGGHLPGGKVTEEIAKARQIEVGKDAISPSTFADFHTPRDFADFADQIRDQMGGIPIGFKISANHIEDDMRFALDAGADYIILDGRGGSTGAAPGIFRDHISVPTIAALARARKFLDVAGHEKGAKNSVTLIITGGLRIPSDFIKALALGADGIALANSALQAIGCTGARICYSGDCPAGIATHAQHLVNKIDVDARARDLALFFNGSVHLMKIMTRACGHHSLREFSRDDICTWKAEISRLAGIPYAGVDPSNP | failed
MQFTDGGKEVELRLRLKTGEILSPKDISVDADGTSLAVKEKRNGLLITLLETNHLFEKIMPSETIWYIDEDQLVVNMKKVDGELKWPDIVESWESLTAGMMQLLKGASIYIVGDSTEINQKVSRELAVGLGYSPLDSKELLESFSKQTIDSWILAEGPDSVAEAESSVLESLSSHVRTVVSTLGGKHGAAGRADQWRHLYSGFTVWVSQTEATDEESAKEEARRSKQEREIGYSNADVVVKLQGWDPTHAKSVAQASLSALKQLIISDKGLPGNK | failed
MCKLIKCELLKLKSMLGAILAFFFPLLLVSIGLLNIYTGSVKISGTSEMWNAIYVQSSSLYGGILFPVFLSALVSLQWRVEFKNNNINNILITDKSHKDIYLSKIFSTFVIAFINIILYIIIIFISVKVLLPKETVKAFIFYGPIIGLLFSLPLICIQHFLSMNFKNFALPLVIGIVLSLPNFVASCYSFSTFIPYSYICKGMFFNVKNSLNVECPIYIFILTALIFVASVSLGTKVFKNKEFR | failed
VDKKAPQISFQARLLRDNVTIFLDFSGRGLFQRGYREHSGAAPLKENLAAALIIRSGWLNDTSKPLVDPMCGSGTILIEAVSMAAKQAPAINRQSWGFEAWLSHDNAVWQKQLTLAIDSSEENMSNLKVKVFGIDIDERVLRTAQQNARNAQLHQYIEFTCKNTNDMDNTFGQPGTILFNPPYGERIGELPELVENFVLFGQKLKMQFKDWRIAILTANVDLLSMLKLSSFKRYKFKNGPLDCQLALYNLDAKQG | failed
